Our source for the protein production values is a protein production outcome set (Wang et al. 2014).

The series in a line: label from the status in PepcDB records.
Turning to “MSELAASLLSRVILPRPGEPLDVRKLYLEESTTNARRAHAPTRTSLQIGAESEVSFATYFNAFPASYWRRWTTCKSVVLRVQVTGAGRVDVYRTKATGARIFVEGHDFTGTEDQPAAVETEVVLQPFEDGGWVWFDITTDTAVTLHSGGWYATSPAPGTANIAVGIPTFNRPADCVNALRELTADPLVDQVIGAVIVPDQGERKVRDHPDFPAAAARLGSRLSIHDQPNLGGSGGYSRVMYEALKNTDCQQILFMDDDIRLEPDSILRVLAMHRFAKAPMLVGGQMLNLQEPSHLHIMGEVVDRSIFMWTAAPHAEYDHDFAEYPLNDNNSRSKLLHRRIDVDYNGWWTCMIPRQVAEELGQPLPLFIKWDDADYGLRAAEHGYPTVTLPGAAIWHMAWSDKDDAIDWQAYFHLRNRLVVAAMHWDGPKAQVIGLVRSHLKATLKHLACLEYSTVAIQNKAIDDFLAGPEHIFSILESALPQVHRIRKSYPDAVVLPAASELPPPLHKNKAMKPPVNPLVIGYRLARGIMHNLTAANPQHHRRPEFNVPTQDARWFLLCTVDGATVTTADGCGVVYRQRDRAKMFALLWQSLRRQRQLLKRFEEMRRIYRDALPTLSSKQKWETALLPAANQEPEHG”, the protein production result is “failed”.

With “MEEKNGSSEVEIGEKDETKKQSKDLEFLSCMMQPKTADSDPHYIGIRRILLHRKADSGVISRRYDWRCNGKGYVAYRNFISKPRKWENLRTPSLLSSPGNSGRWLPSPSPLSHQFEAESFTSSRDLRSVNQVSSRRASFSSSLSDGDNSYRRGGVEHAYSFVGMHCIFDQCKSSVTVLKFGHMSSDILAYGASDGSLTVCSLLEEPSVLKQLTGHSKDVTDFDFSSNNQYIASSSLDKTIRVWELSRGVCIRVIYGISPQYCIRFHPVNNNFLSAGNANKELTVFNFSTGRIIKKLLFEDEVTSMDHDHTGQIIFCGDGQGTVYSVSMDSHTGSLSRSHRHRTNHKSPVTTVKYRSFSLLASGPVLLTCTQDGNLSFFSVALQIKGYLTLRCSLKLAPRIHRIQASFCPLLSLEKGEYIVAGSEDSNVYFYDLTKPKHTCVNKLQGHRFPVMCVAWNHGENLLASSDFYGVVIVWKRAKTSS”, the protein production result is “failed”.

As to “MLNKVLTHLDENIEKSLERLFSLLRFQSISTDFAYKDECRKAADWLVEDLKSIGFKASRRDTSGHPMVVGHHPGPSDDCLHVLFYGHYDVQPVDPLNLWEDDPFTPSLKEREGEKVICARGASDDKGQLMTFIEACRAFKKETGQLPVRVTVLFEGEEESGSSSLVPFLKANKDELKADCALVCDTSMWDADTPSVSVALRGILGEEIIITAANRDLHSGYFGGAAANPIRILTKVLAGLHDENNRVTLPGFYDGVEETPPHILQSWNALNCTAENFLGPIGLSLPAGEKGRSVLELVWARPTAEINGISGGYEGEGIKTVIASQASAKVSFRLVHKQDPEKIRQAFRDYVCSLIPADCSVVFKEHGASPAIQLPYDSPFIKATKDALSQEWNNPALLTVMGGSIPIVADFQSILDMETLLVGFALADDRIHSPNEKYNLKSFHKGQRSWARILATLAKTGG”, the protein production result was “not failed”.

For “MQSTDLGNKESGKIWHRKPSPATHDGIIVNIVHSTSEYHPKVLRFLNVAFDGSGDSFIAGDHQGNIYVFDLHGNRFNLVQRTAQACTALAFNLRRKSEFLVALADYSIKCFDTVTKELVSWMRGHESSVCSISVHASGRYAITTSSDTAQLWDLDTFQRKRKLNIRQSVGIQKVFFLPLSNTILSCFKDNSIFAWECDTLFCKYQLPGPPEGSNILYKVFAVTRDGRILAAGGKSNHLHLWCLEATGLFRIIQMPAKVRAVRHLEFLPDSFDAGSNQVLGVLSQDGIMRFVNIQTCKLLFEIGTVEEGISSSVISPHGRYIASIMENGSLNVYSVQALTQEINKPPPPLVKVIEDLPSNTVSSSNLKMKIMPGRVQRPARCKESKIPTRVLKQDLTGDLENKENELSEGLNKKRLQILLKGYGEYPTKYRMFIWRSLLQLPENHTAFSSLVDKGTHAAYLSLQKKYPIKSRKLLRVLQRTLSALAHWSAIFSDTPYLPLLAFPFVKLFQNNQLICFEVVATLIINWCQHWFEYFPNPPINILSMIENVLAFHDKELLQHFIDRDITSQVYAWPLLETLFSEVLTREEWLRLFDNIFSNHPSFLLMTVVAYSTCSRAPLLNCTLKNDFEYFFHHRNNLDINVVIREVYHLMETTPADIHPNSMLDAFVALTKGQYPIFNQYPKFIVDYQTREWERIRNDELDFLRERQTVENMQAEVDEQRAKDEAWYQKQELLRRAEETRREILLQEEEKMAQQRQRLAAVKRELEIKEIHLQDAARRRLLKLQQDQREMELRRLEDEIERKVQMRDQEIAATAKDLEIRQLELEAQKRLYEKYSFSLSFMQNIV”, the protein production entry was “failed”.

Consider “MEIKNIKEFEKASKKLQKDTLKIALALLFLIGAALLALIFGQANSKGLLLIFAAVIGGYMAMNIGANDVSNNVGPAVGSKAISMGGAILIAAICEMLGAIIAGGEVVSTIKGRIVSPEFINDAHIFINVMLASLLSGALWLHVATLIGAPVSTSHSVVGGIMGAGMAAAGMVAVNWHFLSGIVASWVISPLMGALIAMFFLMLIKKTIAYKEDKKSAALKVVPYLVALMSLTFSWYLIVKVLKRLYALNFEIQLACGCILALLIFILFKRFVLKKAPQLENSHESINELFNVPLIFAAALLSFAHGANDVANAIGPLAAISQTLEDANSPIGNTLSSVPLWIMVVGAAGIALGLSLYGPKLIKTVGSEITELDKMQAFCIALSAVITVLLASQLGLPVSSTHIVVGAVFGVGFLRERLREQSRRRFARIRDNIVAAHFGEDLEEIEGFLERFDKANLKEKSLMLESLKKSKNTAIALELKKKEKKSLKKVYKEEVIKRSILKKIVTAWLVTVPVSALLGALLFVALGFIEKYF”, for which the protein production result was “failed”.

In the case of “MTVSQDILLTDHFKQWIEIFKKGKVSDGTYRKYLYTLSVLKKHFSTATIKTMNRVKYQEMLNEFAEGHSDSSVKQINVHVRASLENLLDDFIIKNDFTKGAISLEHHHHHH”, the protein production entry is reported as “not failed”.

As for “MMCGGRGTRLDAAAEKPLFEVGGRAMVDHVRAALEAAGRIDTTHAAVSPHAPDTAAHLAATPLSLIETPGDGYVADLTAALDAVGTPVLTVAADLPLLAPAVVDTVVAAADGATTSACVPRALKHELGVSTDADADAWVPTGVNVVGGGDTEATHRSFDARLAVNVNHRSDAAVAARLLAATDRRNHPRLEHHHHHH”, the protein production result is given as “failed”.

In the case of “MKGKVVSYLAAKKYGFIQGDDGESYFLHFSELLDKKDEGKLVKGSMVHFDPTPTPKGLAAKAISLPEVFIRERLVDFFTTRDNRPKNGTVIASFPIATRFFKDPSEGRRHLEQLAKHCGCNAVLNVSFEKDTFSKGNYRYTVHAFKGELALVTEKVPADAQELVVASAELLEKRKADVEQAVKQMSEAENLARQKQLSGCLGTLAIITLIPLALVLTAIAVFPA”, the protein production entry is on record as “failed”.

In the case of “VKRFWENVGKPNDTTDGRGTTSLAMTPISQTPGLLAEAMVDLGAIEHNVRVLREHAGHAQLMAVVKADGYGHGATRVAQTALGAGAAELGVATVDEALALRADGITAPVLAWLHPPGIDFGPALLADVQVAVSSLRQLDELLHAVRRTGRTATVTVKVDTGLNRNGVGPAQFPAMLTALRQAMAEDAVRLRGLMSHMVYADKPDDSINDVQAQRFTAFLAQAREQGVRFEVAHLSNSSATMARPDLTFDLVRPGIAVYGLSPVPALGDMGLVPAMTVKCAVALVKSIRAGEGVSYGHTWIAPRDTNLALLPIGYADGVFRSLGGRLEVLINGRRCPGVGRICMDQFMVDLGPGPLDVAEGDEAILFGPGIRGEPTAQDWADLVGTIHYEVVTSPRGRITRTYREAENR”, the protein production entry is “not failed”.

For “MLTFETLCQWHRAWLGNVYSWAGQSRTVDMSKPNIRFASPVQIPKLAEKFEARYLPRFAELPEMTDEELVAFLAEVHVEFILIHPFREGNGRISRLLLDVMAAKAGAEPLDYSLWDEHKDFYFKAIQAGRDGDYQHVERLIRDVLEAQQLEHHHHHH”, the protein production entry is listed as “failed”.

Regarding “MTEYWVSQGNKWCEFCKIWIQNNPTSIRNHDLGKRHRECVDKKLTDMRERSAAKDKELKKNEKLLQQIEAKATRSYQKDIATAQQVAKANGAPEDGTSDWMLDSASGYYYNQTNGLHYDSQSGFYYSDSIGHWVTQDEAYAAVKTSSGTKVPLVKKPVSSSGAGPSVGKPPGRLVTASLNPKRAVKGAASSVDLGNNKRKRQDEKPKKVSAEEKAALKAREAARKRVEDREKPLLGLYNRPF”, the protein production entry is on record as “failed”.

As to “MPTETFFNLPEEKRSRLIDVLLDEFAQNDYDSVSINRITERAGIAKGSFYQYFADKKDCYLYLIQLGIEQKTAFLRQTPPASTTDMFAYLRWLLDVGIQFQFHNPRLAQIAYKALYDDVPLPAETMQVIRHGSFAYFKQLVEQGIADGSLVPDLDADTAAFVLNVVFTELGNHLIERFAVNPAELLREGGIVLLQPAMRRVIEQVIDILERGMRRR”, the protein production entry is given as “not failed”.

On to “MTQWASWKQAIVSLAMLVSFSLFGQQNVQTPPEVVQARFIGNETCIDCHQVEVEAWQGSHHDMAMRHADSESVLGNFDNQAVEHQGKANRFYRKGDEYWVNIQGPDGQWHDYKISYTFGWVPLQQYMVEFDDGRIQLIPFAWDSRSVEQGGQRWFHLYPDTTTTDEFYWTNTGQNWNFMCADCHSTNLKKNYDAQSNTYQTTWSEINVSCEACHGPASLHVEMAKQAKQNGMPIATANHYGFSRDLSAAVKEWVYKEGHSTLQPKDIVPTNQVQTCAQCHSRRTQLNEEADHVKGAFLDKYRLSLITPELYYHDGQIYDEDYVYGSFLQSAMAEKGVTCTNCHDPHSAQLKIPEEAVCAQCHVASDYLPENHTFHQANTEASKCTTCHMPETTYMQVDPRRDHSWHVPRPDLSKHINTPNVCTACHDDKDAKWADEQIGQWFPKSKYRNTQHFSVAFYADAIGHRGGSDALAYTAQDSSISDIIRASALERMAGNTGQNTLVALARAVKHENEMIRLGAVAGSAGYDFSDRWQILQPLLSDPVLSVRTEAAAALVSHYGEMNPLQRERIQKPLDEYMDIQRFNADRGFGRTNLANVYRSLGEASKAIELYQQAIDIEPYFENSYVNLADMYRRQGDEAKAVQILNAGMKAQPKSSSLPYSAGLALLRQGNSKQANQYLKQAAESAKDNAQYWYVYGLALEKSDVLEASKALNKAFEVGGDPRHLYAQCEVLARNYRQGGVAFAFEQCTKQLGAHAPEEVIQQLKATVTTKK”, for which the protein production entry is recorded as “failed”.

Turning to “MCDTFVEFIQLEETVKHDENGKPVKRLRRRETLVHSENVAGRSFWNEHSSLHKDLGHFAKDIGKIEPDYVKSFQFESRLLPLTWVVVRIDGCHFHRFSEVHEFEKPNDEQALKLMNSCAVAVLEEFQDIAFAYGVSDEFSFVLKNKSELYKRQSSKIISAVVSFFTSTYMMRWGDFFPHKKLKYPPSFDGRAVCYPTSDILLDYLAWRQVDCHINNQYNTCFWMLVKSGKSKIQAQDYLKGTQTREKNELLSQQFGIEYNSLPVIFRMGSSVFRLKVLLLLSYSKILLVFHSRFLLL”, the protein production result is “failed”.

“MHTTFTFHLYPWILKYLKGGEGNFKYLHQENPKQEITDSSDKMSFWKDRMLIIPAVDIKDGKCVQLVQGKPGTEQVVLDDPAGVAGRWESLGAETIHVVDLDGALGLEKNTGILKEITERVSVPLQIGGGIRSREYAGKLLDMGFERVILGTMAIENPAIVEELAGEYGSERIMVSLDSRDSRVVIRGWTEKVPFTAEEMARKFQERGAGSILFTNVDFEGLLSGFDLKPVSELVEAVEIPVIYSGGVSSLNDLRMLQGTGVMGVVIGSAIYRGLIDLTEALKYQDLK”: the protein production result is reported as “failed”.

As for “MVYSTTTGRFCGLFCLRDQMPVSTNRHPYSENTMEIIVNGEARAATPMSMLELLRSLDIDPRRVAVELNHDILPKGEYESTILNDGDRIEIVHFVGGGLEHHHHHH”, the protein production entry is reported as “not failed”.
